{"source": "paper PMC10978839", "proteins": {"B1": {"name": "SEMA7A: 5NQ (protein)", "parent chain": "MTPPPPGRAAPSAPRARVPGPPARLGLPLRLRLLLLLWAAAASAQGHLRSGPRIFAVWKGHVGQDRVDFGQTEPHTVLFHEPGSSSVWVGGRGKVYLFDFPEGKNASVRTVNIGSTKGSCLDKRDCENYITLLERRSEGLLACGTNARHPSCWNLVNGTVVPLGEMRGYAPFSPDENSLVLFEGDEVYSTIRKQEYNGKIPRFRRIRGESELYTSDTVMQNPQFIKATIVHQDQAYDDKIYYFFREDNPDKNPEAPLNVSRVAQLCRGDQGGESSLSVSKWNTFLKAMLVCSDAATNKNFNRLQDVFLLPDPSGQWRDTRVYGVFSNPWNYSAVCVYSLGDIDKVFRTSSLKGYHSSLPNPRPGKCLPDQQPIPTETFQVADRHPEVAQRVEPMGPLKTPLFHSKYHYQKVAVHRMQASHGETFHVLYLTTDRGTIHKVVEPGEQEHSFAFNIMEIQPFRRAAAIQTMSLDAERRKLYVSSQWEVSQVPLDLCEVYGGGCHGCLMSRDPYCGWDQGRCISIYSSERSVLQSINPAEPHKECPNPKPDKAPLQKVSLAPNSRYYLSCPMESRHATYSWRHKENVEQSCEPGHQSPNCILFIENLTAQQYGHYFCEAQEGSYFREAQHWQLLPEDGIMAEHLLGHACALAASLWLGVLPTLTLGLLVH"}}, "key": {"[1]": {"assay": "IL-2 ELISA after coculture", "conditions": "glycan lost; control: SEMA7A-WT tumor cells"}, "[2]": {"assay": "coculture, Annexin V/PI flow cytometry", "conditions": "glycan lost; control: SEMA7A-WT tumor cells"}, "[3]": {"assay": "real-time PCR of PD-L1 isoforms", "conditions": "glycan lost; control: SEMA7A-WT cells"}, "[4]": {"assay": "cell viability", "conditions": "glycan lost; control: SEMA7A-WT cells"}, "[5]": {"assay": "CRT expression and nuclear HMGB1 with doxorubicin", "conditions": "glycan lost; control: SEMA7A-WT cells"}, "[6]": {"assay": "CHX chase immunoblot, turnover rate", "conditions": "glycan lost; control: SEMA7A-WT"}, "[7]": {"assay": "cleaved Caspase-3 and proliferation", "conditions": "glycan lost; control: SEMA7A-WT cells"}, "[8]": {"assay": "non-reducing vs reducing western blot", "conditions": "glycan lost; control: SEMA7A-WT"}, "[9]": {"assay": "confocal colocalisation with calreticulin/GM130; membrane trafficking", "conditions": "glycan lost; control: SEMA7A-WT"}, "[10]": {"assay": "ELISA of secreted SEMA7A", "conditions": "glycan lost; control: SEMA7A-WT"}, "[11]": {"assay": "flow cytometry of PD-1, LAG3, CTLA4, TIM3", "conditions": "glycan lost; control: SEMA7A-WT tumor cells"}, "[12]": {"assay": "CHX plus MG132/HCQ/BTZ, immunoblot; degradation pathway", "conditions": "glycan lost; control: SEMA7A-WT"}}, "data": [{"protein": "B1", "values": [{"measurement": "other: IL-2 release by cocultured Jurkat cells", "setting": "[1]", "value": "increases"}, {"measurement": "other: susceptibility to CD8+ T-cell killing", "setting": "[2]", "value": "increases"}, {"measurement": "other: PD-L1 alternative splicing", "setting": "[3]", "value": "changes"}, {"measurement": "other: sensitivity to doxorubicin", "setting": "[4]", "value": "increases"}, {"measurement": "other: immunogenic cell death markers", "setting": "[5]", "value": "increases"}, {"measurement": "degradation_or_half_life", "setting": "[6]", "value": "increases"}, {"measurement": "other: sensitivity to EGFR inhibitors", "setting": "[7]", "value": "increases"}, {"measurement": "oligomerisation", "setting": "[8]", "value": "abolishes"}, {"measurement": "localisation_or_trafficking", "setting": "[9]", "value": "decreases"}, {"measurement": "expression_or_secretion", "setting": "[10]", "value": "no change"}, {"measurement": "other: exhaustion of cocultured CD8+ T cells", "setting": "[11]", "value": "decreases"}, {"measurement": "degradation_or_half_life", "setting": "[12]", "value": "changes"}]}]}
